In assay [1] the target is Biotinylated C-terminal cysteine-tagged MR1–5-OP-RU (SPR) (human) (UniProt Q95460). The assay is described as follows: SPR.
Assay [2] concerns the target MR1 on C1R.MR1 cells pulsed with 5-OP-RU (UniProt Q95460). The assay is described as follows: flow cytometry, TCR tetramer staining on C1R.MR1 cells. The conditions noted are these: 5-OP-RU (10 µM), pulsed for 5 h.
In assay [3] the target is MR1 on C1R.MR1 cells pulsed with Ac-6-FP (UniProt Q95460). Described as above. The conditions noted are these: Ac-6-FP (10 µM), pulsed for 5 h.
Assay [4] deals with MR1 on untreated C1R.MR1 cells (UniProt Q95460). The assay is described as above. The conditions noted are these: No Ligand.
The target in assay [5] is M33-64 TCR tetramer. The assay is described as follows: flow cytometry, TCR tetramer staining on C1R.MR1 mutant cells. The conditions noted are these: 1 μM 5-OP-RU for 3 h; stained 30 min at room temperature; parent: est. 6400; read off a plot. Background: In flow cytometry, cells or beads pass a laser one at a time.
Assay [6] has as its target MAV36 TCR Gln99β alanine mutant on HEK293T cells (human). The assay is described as follows: flow cytometry on cells; PE-labeled MR1–5-OP-RU tetramer (0.5 μg/ml, nonsaturating) staining of HEK293T cells transiently expressing MAV36 TCR or alanine mutants with CD3, 15 min at room temperature; gates normalised for TCR level by anti-Vβ3.
The target in assay [7] is MAV36 TCR Ser49β alanine mutant on HEK293T cells (human). The assay is described as above.

The values that follow come from article PMC12309606.

As for A-F7 TCR (TRAV1-2–TRBV6-1), soluble, the Kd (usually the concentration at which binding is half-saturated) in assay [1] came out at 2.7 µM. M33-64 TCR tetramer Tyr95αAla: the figures for the response in assay [2], in assay [3] and in assay [4] were 61300 MFI, 166 MFI and 162 MFI, respectively. The corresponding values for M33-64 TCR tetramer Tyr95αPhe are 140000 MFI, 20900 MFI and 171 MFI. Take “MR1 on C1R.MR1 cells pulsed with 5-OP-RU (from UniProt Q95460) D57A”: the response in assay [5] was 6100 MFI. Turning to “MR1 on C1R.MR1 cells pulsed with 5-OP-RU (from UniProt Q95460) E158A”, the response in assay [5] turned out to be 2800 MFI. For “MR1 on C1R.MR1 cells pulsed with 5-OP-RU (from UniProt Q95460) H148A”, the response in assay [5] worked out at 4600 MFI.

As for “MR1 on C1R.MR1 cells pulsed with 5-OP-RU (from UniProt Q95460) L65A”, the response in assay [5] is 1300 MFI. Still for that read-out and setting: the same measure for “MR1 on C1R.MR1 cells pulsed with 5-OP-RU (from UniProt Q95460) L151A”: 7000 MFI; for “MR1 on C1R.MR1 cells pulsed with 5-OP-RU (from UniProt Q95460) M72A”: 5900 MFI; for “MR1 on C1R.MR1 cells pulsed with 5-OP-RU (from UniProt Q95460) N146A”: 4000 MFI.

Take “MR1 on C1R.MR1 cells pulsed with 5-OP-RU (from UniProt Q95460) N155A”: in assay [5], the response came out at 1600 MFI. On the same count and under the same terms, next, “MR1 on C1R.MR1 cells pulsed with 5-OP-RU (from UniProt Q95460) Q141A”: 5400 MFI; “MR1 on C1R.MR1 cells pulsed with 5-OP-RU (from UniProt Q95460) R61A”: 5000 MFI; “MR1 on C1R.MR1 cells pulsed with 5-OP-RU (from UniProt Q95460) R79A”: 6600 MFI. Same read-out and setting: the same measure for “MR1 on C1R.MR1 cells pulsed with 5-OP-RU (from UniProt Q95460) R167A”: 5700 MFI; for “MR1 on C1R.MR1 cells pulsed with 5-OP-RU (from UniProt Q95460) T138A”: 5500 MFI; for “MR1 on C1R.MR1 cells pulsed with 5-OP-RU (from UniProt Q95460) V75A”: 6400 MFI. Consider “PE-labeled MR1–5-OP-RU tetramer (from UniProt Q95460 23-341; P61769 21-119) (complex)”, for which the reduction of tetramer staining against the wildtype TCR in assay [6] and in assay [7] was 50% throughout.
